# Experimental data as given in US20250304628A1.
# Columns and labels:
# IgG [1] = experiment: dynamic binding capacity at 10% breakthrough; ligand coupled to agarose medium; after 24 h of 1 M NaOH treatment (2 h cycles)
# IgG [2] = experiment: dynamic binding capacity at 10% breakthrough; ligand coupled to agarose medium; after 24 h of 1 M NaOH treatment, relative to initial capacity
# IgG [3] = experiment: dynamic binding capacity at 10% breakthrough; ligand coupled to agarose medium, IgG 1 mg/ml loaded, before alkali treatment
# IgG [4] = experiment: SPR, Biacore 4000; IgG immobilised on CM5 chip, mutant as analyte
Remaining IgG capacity after 24 hours (dynamic binding capacity at 10% breakthrough) (IgG [1]),Remaining IgG capacity after 24 hours (% of initial) (IgG [2]),Initial IgG capability (dynamic binding capacity at 10% breakthrough) (IgG [3]),Kd (IgG [4]),Substance
68.2 mg/mL,36.7%,186 mg/mL,3.98 nM,"Z(N6L, Q9F, E15I, N23V)4 (designed binder)"
110 mg/mL,62.2%,177 mg/mL,2.72 nM,"Z(N3V, N6E, Q9I, E15L)4 (designed binder)"
70.2 mg/mL,39.2%,179 mg/mL,2.09 nM,"Z(N3L, N6L, Q9I, E15L)4 (designed binder)"
45.3 mg/mL,28.5%,159 mg/mL,2.33 nM,"Z(N3L, N6L, Q9I, E15L, N23V)4 (designed binder)"
39.6 mg/mL,27.6%,143 mg/mL,,Z(Q9I)4 (designed binder)
72 mg/mL,43.6%,165 mg/mL,1.78 nM,Z(E15S)4 (designed binder)
45.5 mg/mL,25.9%,176 mg/mL,4.71 nM,Z(E15T)4 (designed binder)
112 mg/mL,63.9%,175 mg/mL,,"Z(N3L, N6L, Q9F, E15I, N23V)6 (designed binder)"
68.4 mg/mL,45.2%,151 mg/mL,,"Z(N3L, N6L, Q9F, E15I, N23V)4 (designed binder)"
57.2 mg/mL,35.4%,161 mg/mL,2.57 nM,"Z(N3L, N6E, Q9I, E15I, N23I)4 (designed binder)"
33 mg/mL,17.7%,187 mg/mL,2.55 nM,Z(E15I)4 (designed binder)
38.1 mg/mL,23.2%,165 mg/mL,1.54 nM,Z(E15W)4 (designed binder)

# The next lines start with the substance.
Substance,Remaining IgG capacity after 24 hours (dynamic binding capacity at 10% breakthrough) (IgG [1]),Remaining IgG capacity after 24 hours (% of initial) (IgG [2]),Initial IgG capability (dynamic binding capacity at 10% breakthrough) (IgG [3]),Kd (IgG [4])
"Z(N3L, N6E, Q9F, E15L, N23I)4 (designed binder)",65 mg/mL,44%,148 mg/mL,
Z(E15L)4 (designed binder),63 mg/mL,40.1%,157 mg/mL,1.25 nM
Z(Q9M)4 (designed binder),42.6 mg/mL,31.5%,136 mg/mL,2.46 nM
"Z(N3V, N6L, Q9I, E15V, N23Y)6 (designed binder)",103 mg/mL,54.2%,190 mg/mL,
Z(E15V)4 (designed binder),33.2 mg/mL,24.9%,133 mg/mL,2.66 nM
Z(E15F)4 (designed binder),35.5 mg/mL,22.8%,155 mg/mL,3.99 nM
"Z(N3V, N6L, Q9F, E15V, N23Y)4 (designed binder)",67.9 mg/mL,40.1%,169 mg/mL,2.76 nM
"Z(N3L, N6E, Q9I, E15I, N23I)6 (designed binder)",87.8 mg/mL,58.8%,149 mg/mL,
Z(E15D)4 (designed binder),21.6 mg/mL,14.9%,145 mg/mL,1.13 nM
"Z(N3L, Q9I, E15L, N23V)4 (designed binder)",42.1 mg/mL,25.4%,166 mg/mL,4.41 nM
Z(Q9F)4 (designed binder),37.2 mg/mL,20.4%,182 mg/mL,1.74 nM
Z(E15Y)4 (designed binder),48.6 mg/mL,28%,174 mg/mL,2.92 nM
